According to patent publication US20100129347A1 (OSAKA UNIVERSITY, published 2010):

B1: human CD200-Ig fusion protein (Fc fusion)
chain: QVQVVTQDEREQLYTPASLKCSLQNAQEALIVTWQKKKAVSPENMVTFSENHGVVIQPAYKDKINITQLGLQNSTITFWNITLEDEGCYMCLFNTFGFGKISGTACLTVYVQPIVSLHYKFSEDHLNITCSATARPAPMVFWKVPRSGIENSTVTLSHPNGTTSVTSILHIKDPKNQVGKEVICQVLHLGTVTDFKQTVNKG
notes: Control for PILR-Ig; also called control Ig; not shown: Ig part not described
B2: HVEM-Ig (Fc fusion)
chain: LPSCKEDEYPVGSECCPKCSPGYRVKEACGELTGTVCEPCPPGTYIAHLNGLSKCLQCQMCDPAMGLRASRNCSRTENAVCGCSPGHFCIVQDGDHCAACRAYATSSPGQRVQKGGTESQDTLCQNCPPGTFSPNGTLEECQHQTKCSWLVTKAGAGTSSSHWV
notes: not shown: Ig part not described

Assays:
[1] = target: T1, glycoprotein B (gB) of HSV-1 (HSV-1, UniProt P06436 30-903); assay: immunoprecipitation from lysate of HSV-1-infected 293T cells, SDS-PAGE, silver stain
T1 construct: also called protein of 110 kDa; PILR-recognizing ligand

[2] = target: T2, FLAG-tagged extracellular region of gB (29th to 720th amino acids) with transmembrane and intracellu (HSV-1; mouse, UniProt P06436 29-720); assay: flow cytometry on transfected 293T cells
T2 construct: also called cell expressing gB; cells to which gB had been transfected

Binder | binding result [1] | binding result [2]
B1 | no binding | –
B2 | – | no binding
